Like-named read-outs stand apart in the source and are kept apart here.
T1: MERS-CoV (NCoV/Novel coronavirus) Spike Protein (ECD, aa 1-1297, His Tag) (Sino 40069-[change]) (MERS-CoV, UniProt K9N5Q8 18-1297)
T1 sequence: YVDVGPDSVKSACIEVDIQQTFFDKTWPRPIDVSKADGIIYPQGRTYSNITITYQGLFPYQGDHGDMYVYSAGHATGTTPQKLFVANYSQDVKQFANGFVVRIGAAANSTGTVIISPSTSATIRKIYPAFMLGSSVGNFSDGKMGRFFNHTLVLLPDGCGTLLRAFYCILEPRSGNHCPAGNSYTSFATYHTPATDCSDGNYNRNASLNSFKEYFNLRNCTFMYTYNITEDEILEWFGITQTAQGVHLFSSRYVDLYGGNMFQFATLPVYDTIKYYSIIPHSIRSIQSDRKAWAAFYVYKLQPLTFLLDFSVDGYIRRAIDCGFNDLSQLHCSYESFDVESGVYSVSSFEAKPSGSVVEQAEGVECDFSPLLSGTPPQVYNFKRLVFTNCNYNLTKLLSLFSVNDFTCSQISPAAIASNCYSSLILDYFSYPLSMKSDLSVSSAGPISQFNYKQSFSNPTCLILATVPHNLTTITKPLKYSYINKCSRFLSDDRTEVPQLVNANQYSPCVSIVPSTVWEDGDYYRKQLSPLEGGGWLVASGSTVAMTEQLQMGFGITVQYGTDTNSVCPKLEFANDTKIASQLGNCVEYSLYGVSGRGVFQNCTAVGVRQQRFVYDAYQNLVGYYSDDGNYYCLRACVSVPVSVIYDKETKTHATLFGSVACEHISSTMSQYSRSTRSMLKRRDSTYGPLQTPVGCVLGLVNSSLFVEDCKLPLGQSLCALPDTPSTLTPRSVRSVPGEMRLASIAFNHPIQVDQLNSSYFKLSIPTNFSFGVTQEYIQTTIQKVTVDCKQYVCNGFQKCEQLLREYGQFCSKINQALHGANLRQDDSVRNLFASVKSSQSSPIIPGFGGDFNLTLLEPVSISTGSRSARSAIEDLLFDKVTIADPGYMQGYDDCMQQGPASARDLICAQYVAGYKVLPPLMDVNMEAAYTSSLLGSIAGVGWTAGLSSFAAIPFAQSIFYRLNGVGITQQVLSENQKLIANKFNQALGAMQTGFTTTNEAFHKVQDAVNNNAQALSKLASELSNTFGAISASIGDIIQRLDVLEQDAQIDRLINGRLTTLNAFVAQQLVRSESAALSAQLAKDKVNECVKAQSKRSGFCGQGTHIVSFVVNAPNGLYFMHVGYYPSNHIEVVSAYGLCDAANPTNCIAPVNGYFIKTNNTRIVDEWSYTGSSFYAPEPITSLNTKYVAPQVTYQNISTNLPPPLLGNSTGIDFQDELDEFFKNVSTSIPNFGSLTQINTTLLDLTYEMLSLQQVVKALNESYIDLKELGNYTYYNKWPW

T2: MERS-CoV (NCoV/Novel coronavirus) Spike Protein S2 (aa 726-1296, His Tag) (Sino 40070-[change]) (MERS-CoV, UniProt K9N5Q8 726-1296)
T2 sequence: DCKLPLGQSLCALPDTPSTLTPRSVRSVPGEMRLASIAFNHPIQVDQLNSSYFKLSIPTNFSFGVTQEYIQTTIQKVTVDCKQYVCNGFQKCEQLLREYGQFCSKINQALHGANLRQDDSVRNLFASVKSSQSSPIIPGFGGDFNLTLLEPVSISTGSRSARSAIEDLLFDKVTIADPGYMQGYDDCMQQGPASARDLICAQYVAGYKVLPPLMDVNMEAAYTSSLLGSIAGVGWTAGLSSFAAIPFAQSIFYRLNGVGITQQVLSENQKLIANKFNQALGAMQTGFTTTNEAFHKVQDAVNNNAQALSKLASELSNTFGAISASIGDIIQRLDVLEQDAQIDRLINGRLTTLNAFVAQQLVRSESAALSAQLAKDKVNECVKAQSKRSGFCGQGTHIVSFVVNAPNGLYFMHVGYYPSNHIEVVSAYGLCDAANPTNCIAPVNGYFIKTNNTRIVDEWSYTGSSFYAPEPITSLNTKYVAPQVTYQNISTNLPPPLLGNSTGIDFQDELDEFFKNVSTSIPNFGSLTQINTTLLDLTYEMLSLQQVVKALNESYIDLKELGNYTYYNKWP

T3: MERS-CoV (NCoV/Novel coronavirus) Spike Protein fragment (RBD, aa 367-606, His Tag) (Sino 40071-V08B1) (MERS-CoV, UniProt K9N5Q8 367-606)
T3 sequence: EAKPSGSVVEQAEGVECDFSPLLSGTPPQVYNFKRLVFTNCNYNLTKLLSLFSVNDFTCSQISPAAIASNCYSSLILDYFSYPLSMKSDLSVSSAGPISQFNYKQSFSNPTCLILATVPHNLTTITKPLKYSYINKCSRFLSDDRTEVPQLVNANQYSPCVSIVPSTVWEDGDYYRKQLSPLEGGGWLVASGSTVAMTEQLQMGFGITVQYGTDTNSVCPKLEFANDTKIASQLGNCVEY


Columns and labels:
Assay in all cases: Luminex bead binding, supernatant
[1] = target: T4, Human SARS Coronavirus Spike S1 Subunit Protein (His Tag) (Sino 40150-V08B1) (Human SARS Coronavirus, UniProt P59594 14-667)
[2] = target: T1, MERS-CoV (NCoV/Novel coronavirus) Spike …
[3] = target: T2, MERS-CoV (NCoV/Novel coronavirus) Spike …
[4] = target: T3, MERS-CoV (NCoV/Novel coronavirus) Spike …
[5] = target: T3, MERS-CoV (NCoV/Novel coronavirus) Spike …; remark: listed apart in the source
[6] = target: T4, Human SARS Coronavirus Spike S1 Subunit …; remark: listed apart in the source
[7] = target: SARS-CoV-2 Spike Protein (RBD)(R319-F541).mFc (mAb10621-L1) (SARS-CoV-2)
[8] = target: SARS-CoV-2 Spike Protein (RBD)(R319-F541).hFc (mAb10622-L1) (SARS-CoV-2)
[9] = target: Bt-SARS-CoV-2 Spike Protein (RBD)(R319-F541).mFc (mAb10621-L2) (SARS-CoV-2)
[10] = target: T1, MERS-CoV (NCoV/Novel coronavirus) Spike …; remark: listed apart in the source
[11] = target: T2, MERS-CoV (NCoV/Novel coronavirus) Spike …; remark: listed apart in the source

Binder | Binding signal (MFI) [1] [MFI] | Binding signal (MFI) [2] [MFI] | Binding signal (MFI) [3] [MFI] | Binding signal (MFI) [4] [MFI] | Binding signal (MFI) [5] [MFI] | Binding signal (MFI) [6] [MFI] | Binding signal (MFI) [7] [MFI] | Binding signal (MFI) [8] [MFI] | Binding signal (MFI) [9] [MFI] | Binding signal (MFI) [10] [MFI] | Binding signal (MFI) [11] [MFI]
mAb10971 (antibody, V domains shown) VH: EVQLVESGGGLIQPGGSLRLSCAASGVTVSSNYMSWVRQAPGKGLEWVSVIYSGGSTFYSDSVKGRFSISRDNSKNTLYLQMNSLRAEDTAVYYCARDLYYYGMDVWGQGTTVTVSS VL: DIQLTQSPSFLSASVGDRVTITCRASQGISTYLAWYQQKPGKAPKLLIYAASTLQSGVPSRFSGSGSGTEFTLTISSLQPEDFATYYCQQLDSYPGLTFGGGTKVEIKR | 20 | 15 | 13 | 20 |  |  |  |  |  |  | 
mAb11000 (antibody, V domains shown) VH: EVQLVESGGGLVQPGGSLRLSCAASGFTVSSNYMNWVRQAPGKGLEWVSVIYSGGSTFYADSVRGRFTISRHNSKNTLYLQMNSLRAEDTAVYYCARDGSAYGMDVWGQGTTVTVSS VL: not shown |  |  |  |  | 27 |  |  |  |  |  | 
mAb10998 (antibody, V domains shown) VH: EVQLVESGGGLVHPGGSLRLSCAASGLTVSSNYMSWVRQAPGKGLEWVSVIYSGGSTYYADSVKGRFTISRHNSKNTLFLQMNSLRAEDTAVYYCARDRPITGTTLDVWGQGTTVTVSS VL: DIQMTQSPSSLFASVGDRVTITCRASQSISSYLNWYQQKPGKAPKLLIYAASSLQSGVPSRFSGSGSGTDFTLTISSLQPEDFAFYYCQQTYSTPPITFGQGTRLEIK |  |  |  |  |  | 16 | 2230 | 1740 | 2230 |  | 
mAb10955 (antibody, V domains shown) VH: EVQLVESGGGLVQPGGSLRVSCAASGFTVSRNYMSWVRQAPGKGLEWVSVIYSGGSTFYADSVKGRFTISRDNSKNTLYLQMNSLRAEDTAIYYCARYIPRFDPWGQGTLVTVSS VL: DIQMTQSPSSLSASVGDRVTITCQASQDISNYLNWFQQKPGRAPKLLIYDASNLETGVPSRFSGSGSGTDFTFTISSLQPEDIATYYCQQYDNLPITFGQGTRLEIKR | 14 | 15 | 18 | 20 |  |  |  |  |  |  | 
mAb11010 (antibody, V domains shown) VH: QVQLVESGGGVVQPGRSLRLSCAASGFTFSSYGMHWVRQAPGKGLEWVAVISYDGSYKYYADSVKGRFTISRDNSKNTLYLQMNSLRAEDTAVYYCAIDGGTVTTIFDYWGQGTLVTVSS VL: not shown |  |  |  |  |  | 7420 | 14400 | 8880 | 9350 |  | 
mAb10969 (antibody, V domains shown) VH: QVQLVESGGGVVQPGRSLRLSCAASGFTFSSYAMHWVRQAPGKGLEWVAVISYDGSNKYYADSVKGRFTISRDNSKNTLYLQMNSLRAEDTAVYYCARDGRTITMVRGVIDDAFDIWGQGTMVTVSS VL: not shown | 20 | 16 | 20 | 26 |  |  |  |  |  |  | 
mAb11008 (antibody, V domains shown) VH: EVQLVESGGGLVQPGGSLRLSCAASGFTVSSNYMTWVRQAPGKGLEWVSVIYSGGSTFYADSVKGRFTISRHNSENTLYLQMNSLRAEDTAVYYCARDLAAAGTDYWGQGALVTVSS VL: DIQLTQSPSFLSASVGDRVTITCWASQGISSYLAWYQQKPGKAPKLLIYAASTLQSGVPSRFSGSGSGTEFTLTISSLQPDDFATYYCQHLNSYLYTFGQGTKLEIK |  |  |  |  | 20 | 31 | 4260 | 2570 | 3050 | 18 | 16
mAb10970 (antibody, V domains shown) VH: EVQLVESGGGLVQPGGSLRLSCAASGFTVSSNYMSWVRQAPGKGLEWVSVIYSGGSTYYADSVKGRFTISRDNSKNTLYLQMNRLRADDTAVYYCVRDPVGRYYYGMDVWGQGTTVTVSS VL: not shown |  | 14 | 16 | 23 |  |  |  |  |  |  | 
mAb11004 (antibody, V domains shown) VH: QVQLVESGGGVVQPGRSLRLSCVASGFTFSIYGMDWVRQAPGKGLEWVAVISYDGSNKYYADSVKGRFTISRDNSKNTLYLQMNSLRPEDTAVYYCAKDREAAADAFDIWGQGTMVTVSS VL: DIQMTQSPSSVSASVGDRVTITCRASQGISSWLAWYQQKPGKAPKLLIYAASSLHSGVPSRFSGSGSGTDFTLTISSLQPEDFATYYCQQANSFRLTFGGGTKVEIK |  |  |  |  | 26 | 33 | 4580 | 4880 | 4300 | 15 | 20
mAb11002 (antibody, V domains shown) VH: EVQLVESGGGLVQPGGSLRLSCAASGFTVSSNYMSWVRQAPGKGLEWVSVIYSGGSTFYADSVKGRFTISRHNSKNTLYLQMNSLRAEDTAVYYCAREGYGMDVWGQGTTVTVSS VL: not shown |  |  |  |  |  | 31 | 9530 | 9380 | 2200 |  | 

From patent US20240043504A1 (published 2024)
